Experimental data published in patent publication US6261569.

Biological target: riMod, retro-inverso model peptide
Assay: ELISA, immobilised riMod-BSA

Question: For “non-immune mouse serum (polyclonal serum or antibody)”, which titre (reciprocal of highest serum dilution) is on record?
Answer: The titre (reciprocal of highest serum dilution) was 80.
